Reference: PMC10786891, “Massively parallel profiling of RNA-targeting CRISPR-Cas13d”

T1: EsCas13d, nuclease-dead (Eubacterium siraeum, UniProt B0MS50, R295A;H300A;R849A;H854A)
T1 sequence: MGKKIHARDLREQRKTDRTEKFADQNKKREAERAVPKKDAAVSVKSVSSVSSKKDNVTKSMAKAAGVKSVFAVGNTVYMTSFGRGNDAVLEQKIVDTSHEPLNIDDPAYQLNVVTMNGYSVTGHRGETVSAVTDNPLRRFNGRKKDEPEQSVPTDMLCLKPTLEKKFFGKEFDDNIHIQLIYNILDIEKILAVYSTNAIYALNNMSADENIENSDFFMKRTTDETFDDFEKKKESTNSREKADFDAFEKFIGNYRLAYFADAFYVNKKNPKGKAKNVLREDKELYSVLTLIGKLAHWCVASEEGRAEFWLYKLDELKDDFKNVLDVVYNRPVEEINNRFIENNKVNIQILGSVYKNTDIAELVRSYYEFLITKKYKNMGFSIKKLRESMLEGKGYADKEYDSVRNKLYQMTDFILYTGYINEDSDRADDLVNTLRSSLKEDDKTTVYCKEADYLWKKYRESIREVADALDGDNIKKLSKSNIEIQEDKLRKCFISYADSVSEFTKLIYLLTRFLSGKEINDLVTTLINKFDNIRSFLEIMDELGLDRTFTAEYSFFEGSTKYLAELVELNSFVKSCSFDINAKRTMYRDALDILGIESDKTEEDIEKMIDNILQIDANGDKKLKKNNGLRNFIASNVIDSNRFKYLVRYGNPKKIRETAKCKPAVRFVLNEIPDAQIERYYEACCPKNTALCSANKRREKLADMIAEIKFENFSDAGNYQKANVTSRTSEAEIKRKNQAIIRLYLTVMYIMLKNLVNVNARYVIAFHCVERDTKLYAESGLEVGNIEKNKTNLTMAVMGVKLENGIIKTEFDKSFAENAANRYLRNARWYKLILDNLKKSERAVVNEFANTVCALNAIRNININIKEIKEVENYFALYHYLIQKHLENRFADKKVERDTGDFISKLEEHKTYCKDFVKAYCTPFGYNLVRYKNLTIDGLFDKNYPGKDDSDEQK


Molecular target: T1, EsCas13d, nuclease-dead
Test: crRNA (strand 1, pre-loaded); Mg2+; 40 mM Tris-HCl pH 7.5, 150 mM NaCl, 6 mM MgCl2, 1 mM DTT, 0.1% Tween-20, 0.2 mg/ml BSA; 25 C; 10 min per concentration, then washed
Conditions: tags: His6-TwinStrep-SUMO cleaved; N-terminal SNAP kept (SNAP-Surface 488); label: 3' end held by stalled T7 RNA polymerase

| Binder | Kd [nM] |
| --- | --- |
| target 1 MT 5'PFS ACA 3'PFS UCU (mixed) RNA 1: CACCCGUGCAAAAAUGCAGGGGUCUAAAACUGAGCGGAUAACCUCUCUAUGG RNA 2: GGGAAUGGAUCCACAUCUACGAAUUCACACCAUAGAGAGGUUAUCCGCUCAUCUAGAUCGGAAGAGCACACGU | 7.4 ± 2.8 |
| target 1 MT 5'PFS AAA 3'PFS UAG (mixed) RNA 1: CACCCGUGCAAAAAUGCAGGGGUCUAAAACUGAGCGGAUAACCUCUCUAUGG RNA 2: GGGAAUGGAUCCACAUCUACGAAUUCAAACCAUAGAGAGGUUAUCCGCUCAUAGAGAUCGGAAGAGCACACGU | 12.9 ± 2.25 |
| target 1 MT 5'PFS GUA 3'PFS ACG (mixed) RNA 1: CACCCGUGCAAAAAUGCAGGGGUCUAAAACUGAGCGGAUAACCUCUCUAUGG RNA 2: GGGAAUGGAUCCACAUCUACGAAUUCGUACCAUAGAGAGGUUAUCCGCUCAACGAGAUCGGAAGAGCACACGU | 11 ± 0.92 |
| target 1 MT 5'PFS GAA 3'PFS UUG (mixed) RNA 1: CACCCGUGCAAAAAUGCAGGGGUCUAAAACUGAGCGGAUAACCUCUCUAUGG RNA 2: GGGAAUGGAUCCACAUCUACGAAUUCGAACCAUAGAGAGGUUAUCCGCUCAUUGAGAUCGGAAGAGCACACGU | 12.8 ± 2.6 |
| target 1 MT 5'PFS GAC 3'PFS CAA (mixed) RNA 1: CACCCGUGCAAAAAUGCAGGGGUCUAAAACUGAGCGGAUAACCUCUCUAUGG RNA 2: GGGAAUGGAUCCACAUCUACGAAUUCGACCCAUAGAGAGGUUAUCCGCUCACAAAGAUCGGAAGAGCACACGU | 25.5 ± 8.5 |
| target 1 MT 5'PFS GAC 3'PFS ACA (mixed) RNA 1: CACCCGUGCAAAAAUGCAGGGGUCUAAAACUGAGCGGAUAACCUCUCUAUGG RNA 2: GGGAAUGGAUCCACAUCUACGAAUUCGACCCAUAGAGAGGUUAUCCGCUCAACAAGAUCGGAAGAGCACACGU | ~46 |
| target 1 MT 5'PFS UCG 3'PFS CAC (mixed) RNA 1: CACCCGUGCAAAAAUGCAGGGGUCUAAAACUGAGCGGAUAACCUCUCUAUGG RNA 2: GGGAAUGGAUCCACAUCUACGAAUUCUCGCCAUAGAGAGGUUAUCCGCUCACACAGAUCGGAAGAGCACACGU | ~43.5 |
| target 1 A18C,C22A (mixed) RNA 1: CACCCGUGCAAAAAUGCAGGGGUCUAAAACUGAGCGGAUAACCUCUCUAUGG RNA 2: GGGAAUGGAUCCACAUCUACGAAUUCGUAACAUCGAGAGGUUAUCCGCUCACCGAGAUCGGAAGAGCACACGU | 67 ± 13 |
| target 1 MT 5'PFS GAC 3'PFS ACG (mixed) RNA 1: CACCCGUGCAAAAAUGCAGGGGUCUAAAACUGAGCGGAUAACCUCUCUAUGG RNA 2: GGGAAUGGAUCCACAUCUACGAAUUCGACCCAUAGAGAGGUUAUCCGCUCAACGAGAUCGGAAGAGCACACGU | 16.7 ± 3.95 |
| target 1 MT 5'PFS GAA 3'PFS UUC (mixed) RNA 1: CACCCGUGCAAAAAUGCAGGGGUCUAAAACUGAGCGGAUAACCUCUCUAUGG RNA 2: GGGAAUGGAUCCACAUCUACGAAUUCGAACCAUAGAGAGGUUAUCCGCUCAUUCAGAUCGGAAGAGCACACGU | 51 ± 21 |
| target 1 MT 5'PFS UGU 3'PFS CCG (mixed) RNA 1: CACCCGUGCAAAAAUGCAGGGGUCUAAAACUGAGCGGAUAACCUCUCUAUGG RNA 2: GGGAAUGGAUCCACAUCUACGAAUUCUGUCCAUAGAGAGGUUAUCCGCUCACCGAGAUCGGAAGAGCACACGU | 34.5 ± 13.5 |
| target 1 MT 5'PFS ACA 3'PFS UCG (mixed) RNA 1: CACCCGUGCAAAAAUGCAGGGGUCUAAAACUGAGCGGAUAACCUCUCUAUGG RNA 2: GGGAAUGGAUCCACAUCUACGAAUUCACACCAUAGAGAGGUUAUCCGCUCAUCGAGAUCGGAAGAGCACACGU | 7.7 ± 1.55 |
| target 1 MT 5'PFS UAG 3'PFS UAA (mixed) RNA 1: CACCCGUGCAAAAAUGCAGGGGUCUAAAACUGAGCGGAUAACCUCUCUAUGG RNA 2: GGGAAUGGAUCCACAUCUACGAAUUCUAGCCAUAGAGAGGUUAUCCGCUCAUAAAGAUCGGAAGAGCACACGU | 21.4 ± 4.8 |
| target 1 MT 5'PFS GAC 3'PFS ACC (mixed) RNA 1: CACCCGUGCAAAAAUGCAGGGGUCUAAAACUGAGCGGAUAACCUCUCUAUGG RNA 2: GGGAAUGGAUCCACAUCUACGAAUUCGACCCAUAGAGAGGUUAUCCGCUCAACCAGAUCGGAAGAGCACACGU | 75.5 ± 37.5 |
| target 1 MT 5'PFS GUA 3'PFS ACA (mixed) RNA 1: CACCCGUGCAAAAAUGCAGGGGUCUAAAACUGAGCGGAUAACCUCUCUAUGG RNA 2: GGGAAUGGAUCCACAUCUACGAAUUCGUACCAUAGAGAGGUUAUCCGCUCAACAAGAUCGGAAGAGCACACGU | 17.6 ± 1.45 |
| target 1 MT 5'PFS CCU 3'PFS UCA (mixed) RNA 1: CACCCGUGCAAAAAUGCAGGGGUCUAAAACUGAGCGGAUAACCUCUCUAUGG RNA 2: GGGAAUGGAUCCACAUCUACGAAUUCCCUCCAUAGAGAGGUUAUCCGCUCAUCAAGAUCGGAAGAGCACACGU | 26.5 ± 10.5 |
| target 1 MT 5'PFS GUA 3'PFS ACU (mixed) RNA 1: CACCCGUGCAAAAAUGCAGGGGUCUAAAACUGAGCGGAUAACCUCUCUAUGG RNA 2: GGGAAUGGAUCCACAUCUACGAAUUCGUACCAUAGAGAGGUUAUCCGCUCAACUAGAUCGGAAGAGCACACGU | 10.6 ± 0.75 |
| target 1 MT 5'PFS UCC 3'PFS UGA (mixed) RNA 1: CACCCGUGCAAAAAUGCAGGGGUCUAAAACUGAGCGGAUAACCUCUCUAUGG RNA 2: GGGAAUGGAUCCACAUCUACGAAUUCUCCCCAUAGAGAGGUUAUCCGCUCAUGAAGAUCGGAAGAGCACACGU | ~29 |
| target 1 MT 5'PFS GAA 3'PFS UUA (mixed) RNA 1: CACCCGUGCAAAAAUGCAGGGGUCUAAAACUGAGCGGAUAACCUCUCUAUGG RNA 2: GGGAAUGGAUCCACAUCUACGAAUUCGAACCAUAGAGAGGUUAUCCGCUCAUUAAGAUCGGAAGAGCACACGU | 16 ± 2.15 |
| target 1 MT 5'PFS GAC 3'PFS CAU (mixed) RNA 1: CACCCGUGCAAAAAUGCAGGGGUCUAAAACUGAGCGGAUAACCUCUCUAUGG RNA 2: GGGAAUGGAUCCACAUCUACGAAUUCGACCCAUAGAGAGGUUAUCCGCUCACAUAGAUCGGAAGAGCACACGU | 21.5 ± 8 |
| target 1 MT 5'PFS GAC 3'PFS ACU (mixed) RNA 1: CACCCGUGCAAAAAUGCAGGGGUCUAAAACUGAGCGGAUAACCUCUCUAUGG RNA 2: GGGAAUGGAUCCACAUCUACGAAUUCGACCCAUAGAGAGGUUAUCCGCUCAACUAGAUCGGAAGAGCACACGU | 14 ± 5 |
| target 1 MT 5'PFS GAC 3'PFS CAC (mixed) RNA 1: CACCCGUGCAAAAAUGCAGGGGUCUAAAACUGAGCGGAUAACCUCUCUAUGG RNA 2: GGGAAUGGAUCCACAUCUACGAAUUCGACCCAUAGAGAGGUUAUCCGCUCACACAGAUCGGAAGAGCACACGU | 61 ± 21.5 |
| target 1 MT 5'PFS ACC 3'PFS UUG (mixed) RNA 1: CACCCGUGCAAAAAUGCAGGGGUCUAAAACUGAGCGGAUAACCUCUCUAUGG RNA 2: GGGAAUGGAUCCACAUCUACGAAUUCACCCCAUAGAGAGGUUAUCCGCUCAUUGAGAUCGGAAGAGCACACGU | 7.35 ± 3.35 |
| target 1 MT 5'PFS GUA 3'PFS ACC (mixed) RNA 1: CACCCGUGCAAAAAUGCAGGGGUCUAAAACUGAGCGGAUAACCUCUCUAUGG RNA 2: GGGAAUGGAUCCACAUCUACGAAUUCGUACCAUAGAGAGGUUAUCCGCUCAACCAGAUCGGAAGAGCACACGU | 7.95 ± 0.8 |
| target 1 insU 3' of 17,insA 3' of 5 (mixed) RNA 1: CACCCGUGCAAAAAUGCAGGGGUCUAAAACUGAGCGGAUAACCUCUCUAUGG RNA 2: GGGAAUGGAUCCACAUCUACGAAUUCGUACCAUAGUAGAGGUUAUCCGACUCACCGAGAUCGGAAGAGCACACGU | 19 ± 4 |
| target 1 MT 5'PFS UCG 3'PFS CAA (mixed) RNA 1: CACCCGUGCAAAAAUGCAGGGGUCUAAAACUGAGCGGAUAACCUCUCUAUGG RNA 2: GGGAAUGGAUCCACAUCUACGAAUUCUCGCCAUAGAGAGGUUAUCCGCUCACAAAGAUCGGAAGAGCACACGU | ~44 |
| target 1 MT 5'PFS UCC 3'PFS AAA (mixed) RNA 1: CACCCGUGCAAAAAUGCAGGGGUCUAAAACUGAGCGGAUAACCUCUCUAUGG RNA 2: GGGAAUGGAUCCACAUCUACGAAUUCUCCCCAUAGAGAGGUUAUCCGCUCAAAAAGAUCGGAAGAGCACACGU | ~23.5 |
| target 1 MT 5'PFS CAC 3'PFS CAA (mixed) RNA 1: CACCCGUGCAAAAAUGCAGGGGUCUAAAACUGAGCGGAUAACCUCUCUAUGG RNA 2: GGGAAUGGAUCCACAUCUACGAAUUCCACCCAUAGAGAGGUUAUCCGCUCACAAAGAUCGGAAGAGCACACGU | 12 ± 6 |
